Results reported in the domain aggregation screens of Martell et al. (2025).

assay: soluble fraction after stress (log2 fold change); higher = more stays soluble; pooled small domains, quantitative proteomics; settings: stress: 50 degC
Method in brief: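 Custom libraries of small protein domains were pooled and measured in a high-throughput format, with quantitative proteomics as the read-out. Each library was stressed at 50°C. The value is the log2 fold change in the amount of each protein that stays soluble after stress, used as a measure of aggregation propensity; higher values mean more of the protein stays soluble.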

Sequence | soluble fraction (log2)
HMRPEVTEHLKTADAILHGGDINRQSIVDELRQYAPLYIVRGNNDKDWAEAIPHDLTVTLGGVTFFMVHNR | -0.0555
HMGTPKMPLSLYLSMVENLRSLKRFALVNQQVKDGFVFFNDVAGIKRLQELLNYHNTGEKPSE | -1.39
HMRRTVIVTAAHAEIRERPDANAPLVFSAEQKVSLDYQETAPGGWVKVRHRDGQSGYVRTNQI | -0.688
HMDFTISDADFHRLVQFIQQNYGVALSKKRQLISSRLSHSLRELGYKDFRTFLEHLFSTRDPADLELVLNK | -0.989
HMAQVSDDAELEKWADTAIDEHPKPVEEYRAGNAASINFLMGQVMKMSRGKANPGAVMQILKQKLD | 0.109
HMFKITNTLNKTAEVYLTIPENKKGKGKIMISVNGAFHELEAMTENDKIQSGAVVKVVRIENDNILIVET | -1.88
HMADFIGMNATVTERIFPQGFGRISFVYEGNSISEPARSEDGKEIPTGTSVVVLEVRDKVYIVQPL | -0.221
HMATEPLQPRVEVLGSTLATTNGARIVGVYDMSGREVSATQLSKGVYIVKVTNGSVTATQKVFI | 0.112
HMKTLPADPTVKNFSYTVVDGEIYYRENSIMTQIELSDNAKGRVAGMVELRQIVNELIDQQLND | -0.896
HMGPVRRDLEINGRMVPLTIREHARATRITLRIEPGGQALRLTIPPGLPTREVDSFLTRHHGWLMTKLAHI | -1.79
HMRPKVADIDYFDGKTFTIEDGSKHSITTSEAKKIYFYLVKNGYVDDESHVTDAYRSAATSGTLA | -0.0505
HMQGYELKMYVTPDTKYSVAVYDAKNEMVSYTMGFSAKAPFGQEGEVLETVKLEFDKLAVGNYELKYWI | 0.314
HMFIPGDSVRVHVKVVEGSNERIQMFEGVVIARQGSGVRENFTVRRISYGVGIERTFPVHSPRL | 0.103
HMKREWKDDDPTVPAGWKVAWTTTSDNRAKIAFMSPDKKIFHSRKSALQHMLAAGTYAQSDIEKMTKGL | -0.112
HMQEKIREVANRIRELRESLEVSPEEMADHLKVTIGTYIEYERGEADIPASVLFGIAHRLNVDMAVLL | 0.142
HMKSIPKIKWNSTLENIKNFEYQDNFFESKEMYDLLVSFYKYGFVIIKNIPTNNNFIVKFANSIGS | -0.021
HMQAGPEDIIRAKLKTAMPEAQIISIRPTPAGLYQVNAKGYESVFVTADGRYLFQGDLLEIQGDRIVNL | -0.123
HMGGYVVVGDKDGFWSVVSTPVSKAKAEELLKDTTFPKGEKGKIVSVAEAMSHKKVIGKEYLESGGT | 0.117
HMSLEEIPLEERLGPGGLDPVAVYDSLPREMRDAFDSGSVSALREFVNALPAEDAARHMKAMVDSGLWVPT | 0.0547
HMKNANGYGSITKLKGNRRKPYMVRITVGRDENGFPIRKVLGYYSSKANAVAALSDYNREPYDI | -0.667
HMLKLTDRQKVILSILMSDGEKTASWIASQLGVGLRSVQLDLSYLRNNGFIKKASKSTHSAWIVLKK | -2.5
HMNGVSNETLIQKSALYEELNQPDLALKMINTALKKDSVNIEILHRLVTLLMSQEKNEEAILYNQKIIDH | 0.022
HMQISNEEELEKIIENVIESNPEKVKAYQSGKSGLIGFFMGQVMKESGGQANPNLVNQILKGKL | 0.202
HMANLLNLREIPVANIRPELTMFLIPGENITQAFQTIRDQVVFTNKRLIVANVQGLTGKKVSYTSYPY | -0.374
HMTTTPAERQRTILRSLNRVDPVSVDALARLTGVSVVTIRRDLSDLASRDLIRRVHGGALLPTR | -0.917
HMLSKEFRFFTYLLESYAQHKNTTAGAVLKTLDEKGLTDFVYKMYDLYHVEAIENAYMDLDSLIATGKPA | -2.98
HMGPLDIAQLKSDFLGGDAQLARRAWDQLATKAGDEGRDFLISSLGSSDPQIRNRVALGIHES | 0.0489
HMKGSIMIETILKELKKNNKGFNFLLEKFDISEDELMKIINDLIHDKKVFLNSNNKYEIVSD | -0.238

Sequence | soluble fraction (log2)
HMDTAGSVAIVSKSVIENGFGEIKYKGTYFKAQSDVYIPKDQMVKVIGKGDEQGSFLIVEKLN | -0.0425
HMTWDSFIGYTVTDVQKGYLGEITDVDETTINVLLRVDHKGEELLIPAVEELITEADHEARSLTVSLPEGL | -0.0571
HMKVFTEDEMLEKIKEYLSTNSYINRRVMETQFGLRQNIALKWLKHFTEIGVLRKEGERNSPIYFLNN | ≥ 0.62
HMSDGHLIKVLEVLDGGEAFLGRTANGGTARFSLGQLADIRRGSVVFVSEDRWEVVPDSAWPEI | -0.528
HMNADSLIGENIRISERVSNMDQTGMAVVHGQEWTVRTRNDNEIIEPGEEAKILAISGVKLIVEK | -0.119
HMGTYTSALDGIKGLGKKRKMLLLNTYKSIDVLKSVPLTELSQLIPREVAEALLTKLNRVDD | -0.118
HMSAPQKWDGSLQDFIRFKQEAKTLMDNIPNKRLALNAILETISDGKMRKRLAKYDGPESALKSLELEFGN | -0.0592
HMSLHSITIPQEFIGAVIGPGGKVIQEIQKQTGTTITITEKDNKGYVDIFGEDKGALDSALARIKEIVAIP | 0.182
HMIDRADLWEALRKLPEDTLKLFSLHFEKGMTHDEISKHTDIPVGTVKTKLRRGLIEARKLAREF | -0.795
HMPAKIIKKSFVYNPIHRDTEYLAQFLQGEGQVSASGDKLVYYGTVEDISRIKSVLQSVDTPS | 0.0363
HMEAYMVPNVKNKTLNEAQQALSNQKLKGLVIDSSYVKGVPDGMVLDQNPAGGARVKEGRTIYLTVTTS | 0.318
HMGFSERLAQAMSHAGYTQGGLAKAVGMAQSSVNKLLNNANSSRKTVEIASVLGVRPEWLSTGEGDML | 0.00207
HMAGEDPANLELMRLMDEEYMEHPTKGVLGMVDFLRALGILTGPKRVRRLLRKMGIMAIYPK | -0.0379
HMTVLPTENDAKALVGLNEDEAVKIIEGNGWTYRIGSRDGEQFMLTEDYSTSRLTLGIEKSIVVTATI | -0.151
HMDKTTIKNEQKKQILIFAEMNLFFKAKDVAELLGLQASRARYLLQELVKDGKIQGIGNNKGRKYQLI | -0.438
HMAEAIVMSTAAPVKSSPDPQSKDIFVLHEGTKVAVGDSLGDWREIRIADGNKGWVLVSAIEMI | 0.0979
HMSVPSVAAVREQTGLSQVKFASLLGVSVRTLQEWEQGRRAPSGAARTLLMVAAKNPQALLEV | -0.584
HMTLLVPASKEAILGGLAKIDALKVILKPEKDYSKTHAMTIGTKDEVIAKLDSFLSGMDSEKNQVLIQEYM | 0.107
HMIAVSQEQIKQIIVDDPSFHDANGKFSQALLTQYLNQRRMSEDQFVEEIRDQFLFQNLQNLVQNG | 0.0233
HMSDDLIILGYSMLNNALKAFHIDPDSIKKKHWDKLAQDYHLKNKNQILTDIALGKRVNIMVAHQLTTIMD | -0.633
HMGVSAGQVRGLIRNLIAGEDKSKPLSDLALERELEKREIRISRRTVAKYRAELGIPNSDQRRYLP | -0.642
HMEDIPENIRYKFLLKELKENEHLNILDKENIARKLTEIDLPELEKELLENEILNSTIKDYLGIKLV | 0.173
HMVDPRLRSLTPQERRILEHIAEGLTNRQIAEDMFLAEKTVKNYVTSILDKLGMDSRTQAAVYAATHPT | -0.252
HMDPGPVLISAQVLDDLEAIRRDGSSNMLDWPAVARLAEVMGMDRTAAWVRTHHREYSAGIFRGFASD | -1.68
HMEAKSSTKALLDVVLGRNGVSTANVAKSLNISVQNASTRLKKLSSEGVIMRSEVSSPTGGIEFIYS | -0.0504
HMGEDSEPVQVPDVTGQPLWEARRTLSSMGLKVLDDGGSGSVTAQMPSAGATLRNGGQMMLYTYDEALPE | 0.133
HMSAQDLIVRRDSARIEARVTEISPTEIRYKRASNPDGPTYVLPLGDVRSIRYANGEEEVFAPA | -0.138
